Laboratory results reported in article PMC9332313, “Folding and Binding Mechanisms of the SH2 Domain from Crkl” (Biomolecules, 2022).
Square brackets hold non-standard residues; d marks the D form. Ends that are not written are not given here. * marks the point of attachment. pY = N[C@@H](Cc1ccc(OP(=O)(O)O)cc1)C(=O)O; Dansyl = CN(C)c1cccc2c(S(=O)(=O)*)cccc12

What was measured:
[1] = biological target: T1, SH2 domain of Crkl protein (residues 1-111), wild type (UniProt P46109 1-111); assay: stopped-flow fluorescence kinetics (FRET); dansyl-Pax112-123 constant at 2 μM mixed with Crkl-SH2 2 to 10 μM (pseudo-first-order, kon); koff by displacement of the preincubated 2 µM complex with excess non-dansylated Pax112-123 (30 μM); 283 K; 50 mM TrisHCl pH 8.0, 0.5 M NaCl; conditions: both partners purified
T1 construct: Crkl adaptor protein, SH2 domain, residues 1-111; Subcloned in pET28b+; all experiments were done on the N-terminally His-tagged protein; also called Crkl-SH2; Crkl SH2 domain; source: E. coli BL21 (DE3), purified (HisTrap nickel column, desalting); not shown: His tag, N-terminal, kept
T1 sequence (P46109 1-111): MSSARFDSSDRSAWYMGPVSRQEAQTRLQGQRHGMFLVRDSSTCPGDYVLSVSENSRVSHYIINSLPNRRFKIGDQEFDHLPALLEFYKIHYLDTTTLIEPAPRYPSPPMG

[2] = biological target: T2, SH2 domain of Crkl protein (residues 1-111), H91A variant (UniProt P46109 1-111, H91A); assay: as above; conditions: both partners purified
T2 construct: Crkl adaptor protein, SH2 domain, residues 1-111, His91 replaced by alanine; Site-directed mutant of m1 (QuikChange); source: E. coli BL21 (DE3), purified (HisTrap nickel column, desalting); not shown: His tag, N-terminal, kept
T2 sequence (P46109 1-111 H91A): as the sequence (P46109 1-111) above, with H91A counted along it

B1: dansylated Pax_(112–123) peptide (Dans-GEEEHV-pY-SFPNK) (peptide)
peptide: Dansyl-GEEEHV[pY]SFPNK
notes: The dansyl group is the FRET acceptor of Trp14 of the SH2 domain; source: synthetic peptide, bought: GenScript
[1]
  Kd: 3100 ± 200 nM
  koff: 41.4 ± 0.9 s⁻¹
  kon: 1.32e+07 ± 700000 M⁻¹ s⁻¹
[2]
  Kd: 2900 ± 100 nM
  koff: 39 ± 0.7 s⁻¹
  kon: 1.32e+07 ± 500000 M⁻¹ s⁻¹
